The values below come from the supplement of paper PMC10567573.

First the molecules themselves.
B1: MLL5 (parent)
chain: EQIAERKRKMVSWEASSLGLVTAA
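Further: lentivirally expressed fusions sorted by FACS into six bins by GFP to DsRed ratio, PSI derived from sequencing read proportions per bin multiplied by bin number.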

The variants in this data set derive from B1. The data set can be described thus: protein stability index of a GFP-peptide fusion (GPS, HEK-293T) (PSI 1-6); higher = more stable. The settings on record: c terminus: a fixed tail appended.
As for EQIAERKRKMVSWEASSLGLQTAA [V21Q], the protein stability index was 3.22.
On to EQIAERKRKMVSWEASSLGLMTAA [V21M], for which the protein stability index came to 3.32.
In the case of EQIAERKRKMVSWEASSLGLGTAA [V21G], the protein stability index came to 3.4.
With EQIAERKRKMVSWEASSLGLNTAA [V21N] the figure was 3.22.
The same measure for EQIAERKRKMVSWEASSLGLETAA [V21E]: 2.73.
Take EQIAERKRKMVSWEASSLGLFTAA [V21F]: the protein stability index is 2.38.
With EQIAERKRKMVSWEASSLGLLTAA [V21L] the figure was 2.76; with EQIAERKRKMVSWEASSLGLHTAA [V21H], 2.82; with EQIAERKRKMVSWEASSLGLSTAA [V21S], 3.68.
With EQIAERKRKMVSWEASSLGLRTAA [V21R], the protein stability index was 2.96.
The same measure for EQIAERKRKMVSWEASSLGLITAA [V21I]: 3.15; for EQIAERKRKMVSWEASSLGLTTAA [V21T]: 3.62; for EQIAERKRKMVSWEASSLGLCTAA [V21C]: 3.05.
Consider EQIAERKRKMVSWEASSLGLDTAA [V21D], for which the protein stability index turned out to be 3.55.
With EQIAERKRKMVSWEASSLGLPTAA [V21P] the figure was 2.44; with EQIAERKRKMVSWEASSLGLATAA [V21A], 3.23; with EQIAERKRKMVSWEAPSLGLVTAA [S16P], 3.
EQIAERKRKMVSWEADSLGLVTAA [S16D]: the protein stability index stood at 2.86.
With EQIAERKRKMVSWEAWSLGLVTAA [S16W] the figure was 1.77.
With EQIAERKRKMVSWEAHSLGLVTAA [S16H] the figure was 1.57; with EQIAERKRKMVSWEALSLGLVTAA [S16L], 1.99.
With EQIAERKRKMVSWEARSLGLVTAA [S16R], the protein stability index is 3.57.
The same measure for EQIAERKRKMVSWEAKSLGLVTAA [S16K]: 3.23; for EQIAERKRKMVSWEACSLGLVTAA [S16C]: 2.59.
With EQIAERKRKMVSWEATSLGLVTAA [S16T] the figure was 2.77.
In the case of EQIAERKRKMVSWEAQSLGLVTAA [S16Q], the protein stability index came to 3.05.
With EQIAERKRKMVSWEAASLGLVTAA [S16A] the figure was 3.11; with EQIAERKRKMVSWEAVSLGLVTAA [S16V], 2.29.
The same measure for EQIAERKRKMVSWEAISLGLVTAA [S16I]: 1.94.
With EQIAERKRKMVSWEAESLGLVTAA [S16E] the figure was 3.02.
As for EQIAERKRKLVSWEASSLGLVTAA [M10L], the protein stability index was found to be 3.56.
The same measure for EQIAERKRKEVSWEASSLGLVTAA [M10E]: 4.23.
Turning to EQIAERKRKQVSWEASSLGLVTAA [M10Q], the protein stability index came out at 3.95.
The same measure for EQIAERKRKHVSWEASSLGLVTAA [M10H]: 3.44; for EQIAERKRKYVSWEASSLGLVTAA [M10Y]: 2.89.
As for EQIAERKRKCVSWEASSLGLVTAA [M10C], the protein stability index is 3.29.
The same measure for EQIAERKRKVVSWEASSLGLVTAA [M10V]: 2.82.
The same measure for EQIAERKRKTVSWEASSLGLVTAA [M10T]: 3.55; for EQIAERKRKIVSWEASSLGLVTAA [M10I]: 2.81.
As to EQIAERKRKFVSWEASSLGLVTAA [M10F], the protein stability index turned out to be 2.93.
For the variant EQIAERKRKKVSWEASSLGLVTAA [M10K], the protein stability index came to 3.7.
With EQIAERKRKSVSWEASSLGLVTAA [M10S], the protein stability index came to 3.69.
The same measure for EQIAERKRKGVSWEASSLGLVTAA [M10G]: 4.16; for EQIAERKRKDVSWEASSLGLVTAA [M10D]: 4.4; for EQIAERKRKRVSWEASSLGLVTAA [M10R]: 4.01.
Turning to EQIAERKRKNVSWEASSLGLVTAA [M10N], the protein stability index came out at 3.5.
EQIAERKRKMVAWEASSLGLVTAA [S12A]: the protein stability index came to 3.35.
The same measure for EQIAERKRKMVYWEASSLGLVTAA [S12Y]: 2.22; for EQIAERKRKMVQWEASSLGLVTAA [S12Q]: 2.33.
The same measure for EQIAERKRKMVNWEASSLGLVTAA [S12N]: 3.19; for EQIAERKRKMVKWEASSLGLVTAA [S12K]: 2.59; for EQIAERKRKMVVWEASSLGLVTAA [S12V]: 2.68.
As for EQIAERKRKMVLWEASSLGLVTAA [S12L], the protein stability index is 2.37.
With EQIAERKRKMVFWEASSLGLVTAA [S12F] the figure was 2.16; with EQIAERKRKMVCWEASSLGLVTAA [S12C], 2.36.
As to EQIAERKRKMVRWEASSLGLVTAA [S12R], the protein stability index came to 3.36.
Consider EQIAERKRKMVHWEASSLGLVTAA [S12H], for which the protein stability index came to 2.35.
With EQIAERKRKMVMWEASSLGLVTAA [S12M] the figure was 3.36; with EQIAERKRKMVDWEASSLGLVTAA [S12D], 2.85; with EQIAERKRKMVEWEASSLGLVTAA [S12E], 3.92.
With EQIAERKRKMVPWEASSLGLVTAA [S12P], the protein stability index stood at 2.59.
In the case of EQIAERKRKMVSWEASLLGLVTAA [S17L], the protein stability index was 3.15.
As to EQIAERKRKMVSWEASKLGLVTAA [S17K], the protein stability index worked out at 3.54.
With EQIAERKRKMVSWEASPLGLVTAA [S17P], the protein stability index came to 3.46.
The same measure for EQIAERKRKMVSWEASFLGLVTAA [S17F]: 1.37.
As for EQIAERKRKMVSWEASHLGLVTAA [S17H], the protein stability index is 2.7.
Consider EQIAERKRKMVSWEASGLGLVTAA [S17G], for which the protein stability index was found to be 3.12.
With EQIAERKRKMVSWEASYLGLVTAA [S17Y] the figure was 2.43.
With EQIAERKRKMVSWEASELGLVTAA [S17E] the figure was 3.41; with EQIAERKRKMVSWEASCLGLVTAA [S17C], 1.44; with EQIAERKRKMVSWEASDLGLVTAA [S17D], 2.98.
As to EQIAERKRKMVSWEASTLGLVTAA [S17T], the protein stability index turned out to be 2.98.
With EQIAERKRKMVSWEASALGLVTAA [S17A] the figure was 2.77; with EQIAERKRKMVSWEASNLGLVTAA [S17N], 2.71.
Turning to EQIAERKRKMVSWEASQLGLVTAA [S17Q], the protein stability index was found to be 3.08.
Regarding EQIAERKRKMVSWEASVLGLVTAA [S17V], the protein stability index amounted to 2.31.
With EQIAERKRKMVSWEASMLGLVTAA [S17M], the protein stability index was determined as 1.54.
As for EQIAERKRKMVSWEASWLGLVTAA [S17W], the protein stability index came to 1.76.
Turning to EQIAERKRKMVSWDASSLGLVTAA [E14D], the protein stability index came out at 2.07.
As to EQIAERKRKMVSWLASSLGLVTAA [E14L], the protein stability index was found to be 2.95.
For the variant EQIAERKRKMVSWFASSLGLVTAA [E14F], the protein stability index was 1.97.
The same measure for EQIAERKRKMVSWSASSLGLVTAA [E14S]: 2.47; for EQIAERKRKMVSWTASSLGLVTAA [E14T]: 3; for EQIAERKRKMVSWIASSLGLVTAA [E14I]: 2.22.
The same measure for EQIAERKRKMVSWQASSLGLVTAA [E14Q]: 2.32; for EQIAERKRKMVSWYASSLGLVTAA [E14Y]: 2.52.
With EQIAERKRKMVSWRASSLGLVTAA [E14R] the figure was 2.31.
For the variant EQIAERKRKMVSWCASSLGLVTAA [E14C], the protein stability index is 2.49.
With EQIAERKRKMVSWPASSLGLVTAA [E14P] the figure was 2.44.
With EQIAERKRKMVSWMASSLGLVTAA [E14M] the figure was 2.24; with EQIAERKRKMVSWVASSLGLVTAA [E14V], 1.97; with EQIAERKRKMVSWNASSLGLVTAA [E14N], 3.39.
With EQIAERKRKMVSWAASSLGLVTAA [E14A] the figure was 2.8; with EQIAERKRKMVSWGASSLGLVTAA [E14G], 2.2.
